# From PMC4507180
# Positions count from the first letter of the chain named.
# Legend:
# [1] = biological target: DndB protein of Salmonella enterica serovar Cerro 87 (Salmonella enterica serovar Cerro 87); test: SEC; HiLoad 16/60 Superdex 200; 20 mM Tris-HCl pH 8.0, 150 mM NaCl; 0.7 mL/min; calibrated with myoglobin, ovalbumin, albumin, phosphorylase b, gamma-globulin; native mass 79 kDa
# [2] = biological target: T1, DndB (Salmonella enterica serovar Cerro 87) (UniProt E2D676); test: EMSA; conditions: EMSA: 20 mM Tris-HCl pH 8.0, 50 mM KCl, 10 mM MgCl2, 5 mM EDTA, 10 mM DTT, 5% glycerol, room temperature 30 min, 20 nM DNA; footprinting: 25 C 30 min, 200 ng …
# T1 sequence: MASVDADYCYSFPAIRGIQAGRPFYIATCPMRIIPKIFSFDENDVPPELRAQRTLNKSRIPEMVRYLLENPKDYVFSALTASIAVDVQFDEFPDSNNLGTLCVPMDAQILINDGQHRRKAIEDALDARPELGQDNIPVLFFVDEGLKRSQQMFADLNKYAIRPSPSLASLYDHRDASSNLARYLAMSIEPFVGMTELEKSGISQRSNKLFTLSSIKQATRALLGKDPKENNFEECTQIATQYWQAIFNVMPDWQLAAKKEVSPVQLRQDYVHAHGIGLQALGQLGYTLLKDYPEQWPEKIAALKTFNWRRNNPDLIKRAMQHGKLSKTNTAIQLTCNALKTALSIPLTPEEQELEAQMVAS
# [3] = biological target: T2, DndB C29S C29S (Salmonella enterica serovar Cerro 87) (UniProt E2D676); test: EMSA; conditions: EMSA: 20 mM Tris-HCl pH 8.0, 50 mM KCl, 10 mM MgCl2, 5 mM EDTA, 10 mM DTT, 5% glycerol, room temperature 30 min, 20 nM DNA; footprinting: 25 C 30 min, 200 ng …
# T2 sequence: T1 sequence with C29S
Substance,stoichiometry N [1],binding [2],binding [3]
DndB protein of Salmonella enterica serovar Cerro 87 (natural protein),2,–,–
GCTGTAATCCGTGTAAAAATCGAATGAATTGAGTTACGTGATATTTTACGTAATGCTTAATAAAATTTATAGTTTTTTTTATGTTTTACGTGATTTTTTGCGTACAGGGTTCCATATCTGAGA (double strand) [B1],–,300 nM,90 nM
